{
  "source": "patent US20040248202A1",
  "about": "(WISCONSIN ALUMNI RESEARCH FOUNDATION, published 2004)",
  "binders": {"B1": {"name": "BR-Rhodopsin loop 3 chimera, Rhodopsin Insert Y223 to T251 (3B) (other)", "chain": "QAQITGRPEWIWLALGTALMGLGTLYFLVKGMGVSDPDAKKFYAITTLVPAIAFTMYLSMLLGYGLTMVPFGGEQNPIYWARYADWLFTTPLLLLDLALLVDADQGTILALVGADGIMIGTGLVGALTKVYSYRFVWWAISTAAMLYILYVLFFGFTYGQLVFTVKEAAAQQQESATTQKAEKEVTVASTFKVLRNVTVVLWSAYPVVWLIGSEGAGIVPLNIETLLFMVLDVSAKVGFGLILLRSRAIFGEAEAPEPSAGDGAAATSD"}, "B2": {"name": "BR-Rhodopsin loop 3 chimera, Rhodopsin Insert G224 to M253 (3E) (other)", "chain": "QAQITGRPEWIWLALGTALMGLGTLYFLVKGMGVSDPDAKKFYAITTLVPAIAFTMYLSMLLGYGLTMVPFGGEQNPIYWARYADWLFTTPLLLLDLALLVDADQGTILALVGADGIMIGTGLVGALTKVYSYRFVWWAISTAAMLYILYVLFFGFTGQLVFTVKEAAAQQQESATTQKAEKEVTRMVASTFKVLRNVTVVLWSAYPVVWLIGSEGAGIVPLNIETLLFMVLDVSAKVGFGLILLRSRAIFGEAEAPEPSAGDGAAATSD"}, "B3": {"name": "BR-Rhodopsin loop 3 chimera, Rhodopsin Insert Q225 to T251 (3D) (other)", "chain": "QAQITGRPEWIWLALGTALMGLGTLYFLVKGMGVSDPDAKKFYAITTLVPAIAFTMYLSMLLGYGLTMVPFGGEQNPIYWARYADWLFTTPLLLLDLALLVDADQGTILALVGADGIMIGTGLVGALTKVYSYRFVWWAISTAAMLYILYVLFFGFTQLVFTVKEAAAQQQESATTQKAEKEVTVASTFKVLRNVTVVLWSAYPVVWLIGSEGAGIVPLNIETLLFMVLDVSAKVGFGLILLRSRAIFGEAEAPEPSAGDGAAATSD"}, "B4": {"name": "BR-Rhodopsin loop 3 chimera, Rhodopsin Insert Y223 to M253 (3C) (other)", "chain": "QAQITGRPEWIWLALGTALMGLGTLYFLVKGMGVSDPDAKKFYAITTLVPAIAFTMYLSMLLGYGLTMVPFGGEQNPIYWARYADWLFTTPLLLLDLALLVDADQGTILALVGADGIMIGTGLVGALTKVYSYRFVWWAISTAAMLYILYVLFFGFTYGQLVFTVKEAAAQQQESATTQKAEKEVTRMVASTFKVLRNVTVVLWSAYPVVWLIGSEGAGIVPLNIETLLFMVLDVSAKVGFGLILLRSRAIFGEAEAPEPSAGDGAAATSD"}, "B5": {"name": "BR-Rhodopsin loop 3 chimera, Rhodopsin Insert Y223 to R252 (3G) (other)", "chain": "QAQITGRPEWIWLALGTALMGLGTLYFLVKGMGVSDPDAKKFYAITTLVPAIAFTMYLSMLLGYGLTMVPFGGEQNPIYWARYADWLFTTPLLLLDLALLVDADQGTILALVGADGIMIGTGLVGALTKVYSYRFVWWAISTAAMLYILYVLFFGFTYGQLVFTVKEAAAQQQESATTQKAEKEVTRVASTFKVLRNVTVVLWSAYPVVWLIGSEGAGIVPLNIETLLFMVLDVSAKVGFGLILLRSRAIFGEAEAPEPSAGDGAAATSD"}, "B6": {"name": "BR-Rhodopsin loop 3 chimera, Rhodopsin Insert Q225 to R252 (3H) (other)", "chain": "QAQITGRPEWIWLALGTALMGLGTLYFLVKGMGVSDPDAKKFYAITTLVPAIAFTMYLSMLLGYGLTMVPFGGEQNPIYWARYADWLFTTPLLLLDLALLVDADQGTILALVGADGIMIGTGLVGALTKVYSYRFVWWAISTAAMLYILYVLFFGFTQLVFTVKEAAAQQQESATTQKAEKEVTRVASTFKVLRNVTVVLWSAYPVVWLIGSEGAGIVPLNIETLLFMVLDVSAKVGFGLILLRSRAIFGEAEAPEPSAGDGAAATSD"}, "B7": {"name": "bacteriorhodopsin (other)", "chain": "QAQITGRPEWIWLALGTALMGLGTLYFLVKGMGVSDPDAKKFYAITTLVPAIAFTMYLSMLLGYGLTMVPFGGEQNPIYWARYADWLFTTPLLLLDLALLVDADQGTILALVGADGIMIGTGLVGALTKVYSYRFVWWAISTAAMLYILYVLFFGFTSKAESMRPEVASTFKVLRNVTVVLWSAYPVVWLIGSEGAGIVPLNIETLLFMVLDVSAKVGFGLILLRSRAIFGEAEAPEPSAGDGAAATSD"}},
  "data": [
    {"biological_target": "holotransducin", "assay": "cell-based or functional assay", "units": {"Specific counts (Lattice Form), 10 Minutes, GTPyS uptake": "specific counts"}, "values": [
      {"binder": "B1", "Activation (x100%) Over Basal Exchange": "1.17 x100%", "Specific counts (Lattice Form), 10 Minutes, GTPyS uptake": 62800},
      {"binder": "B2", "Activation (x100%) Over Basal Exchange": "1.46 x100%", "Specific counts (Lattice Form), 10 Minutes, GTPyS uptake": 78400},
      {"binder": "B3", "Activation (x100%) Over Basal Exchange": "1 x100%", "Specific counts (Lattice Form), 10 Minutes, GTPyS uptake": 53400},
      {"binder": "B4", "Activation (x100%) Over Basal Exchange": "1.44 x100%"}
    ]},
    {"biological_target": "holotransducin", "assay": "cell-based or functional assay", "remark": "another data set of the same source", "units": {"Activation (3C) over Basal Exchange, 100 uM GDP": "fold"}, "values": [
      {"binder": "B4", "Activation (3C) over Basal Exchange, 100 uM GDP": 1.67}
    ]},
    {"biological_target": "holotransducin", "assay": "cell-based or functional assay", "remark": "another data set of the same source", "units": {"Activation (Fold increase) over BR": "fold", "Activation (Fold increase) over Basal": "fold", "Specific counts (Lattice Form) (at 30 min), 35S-GTPyS uptake": "specific counts"}, "values": [
      {"binder": "B5", "Activation (Fold increase) over BR": 1.55, "Activation (Fold increase) over Basal": 1.1, "Specific counts (Lattice Form) (at 30 min), 35S-GTPyS uptake": 183000},
      {"binder": "B6", "Activation (Fold increase) over BR": 1.6, "Activation (Fold increase) over Basal": 1.17, "Specific counts (Lattice Form) (at 30 min), 35S-GTPyS uptake": 193000},
      {"binder": "B4", "Activation (Fold increase) over BR": 2.22, "Activation (Fold increase) over Basal": 1.6, "Specific counts (Lattice Form) (at 30 min), 35S-GTPyS uptake": 262000},
      {"binder": "B7", "Specific counts (Lattice Form) (at 30 min), 35S-GTPyS uptake": 118000}
    ]}
  ]
}
